# Values of other authors as cited in article PMC10054347.
# Experiments:
# [1] = molecular target: T1, Epithelial cell adhesion molecule (EpCAM) (Homo sapiens (Human)) (UniProt P16422); test: flow; settings: DPBS, 4.5 g/L glucose, 5 mM MgCl2, 10% FBS, 37 C; HepG2 cells overexpressing EpCAM
# T1 sequence: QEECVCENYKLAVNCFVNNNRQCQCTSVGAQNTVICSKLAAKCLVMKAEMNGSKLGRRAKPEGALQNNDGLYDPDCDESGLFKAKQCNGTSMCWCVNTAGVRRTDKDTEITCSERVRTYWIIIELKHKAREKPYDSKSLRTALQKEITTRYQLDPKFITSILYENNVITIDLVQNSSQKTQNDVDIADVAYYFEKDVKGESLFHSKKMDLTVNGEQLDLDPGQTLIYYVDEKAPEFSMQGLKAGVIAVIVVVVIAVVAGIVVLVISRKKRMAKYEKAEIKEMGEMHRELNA
# [2] = molecular target: PD-L1 (human) (Homo sapiens (Human)) (UniProt Q9NZQ7); test: flow; settings: MDA-MB-231 PD-L1 over-expressing cells, 4 C, 1 h
# [3] = molecular target: Double homeobox protein 4 (human), full length (Homo sapiens (Human)) (UniProt Q9UBX2); test: FP; settings: hairpin with CCC bulge
# [4] = molecular target: MMP14 (MT1-MMP) (Homo sapiens (Human)) (UniProt P50281); test: flow; settings: 293T-MMP14 cells; PBS, 10% FCS, 0.02% NaN3, 37 C, 30 min
# [5] = molecular target: T2, Aspartyl/asparaginyl beta-hydroxylase, human (Homo sapiens (Human)) (UniProt Q12797); test: flow; settings: HeLa-ASPH cells; DPBS, 5 mM MgCl2, glucose, BSA, tRNA
# T2 sequence: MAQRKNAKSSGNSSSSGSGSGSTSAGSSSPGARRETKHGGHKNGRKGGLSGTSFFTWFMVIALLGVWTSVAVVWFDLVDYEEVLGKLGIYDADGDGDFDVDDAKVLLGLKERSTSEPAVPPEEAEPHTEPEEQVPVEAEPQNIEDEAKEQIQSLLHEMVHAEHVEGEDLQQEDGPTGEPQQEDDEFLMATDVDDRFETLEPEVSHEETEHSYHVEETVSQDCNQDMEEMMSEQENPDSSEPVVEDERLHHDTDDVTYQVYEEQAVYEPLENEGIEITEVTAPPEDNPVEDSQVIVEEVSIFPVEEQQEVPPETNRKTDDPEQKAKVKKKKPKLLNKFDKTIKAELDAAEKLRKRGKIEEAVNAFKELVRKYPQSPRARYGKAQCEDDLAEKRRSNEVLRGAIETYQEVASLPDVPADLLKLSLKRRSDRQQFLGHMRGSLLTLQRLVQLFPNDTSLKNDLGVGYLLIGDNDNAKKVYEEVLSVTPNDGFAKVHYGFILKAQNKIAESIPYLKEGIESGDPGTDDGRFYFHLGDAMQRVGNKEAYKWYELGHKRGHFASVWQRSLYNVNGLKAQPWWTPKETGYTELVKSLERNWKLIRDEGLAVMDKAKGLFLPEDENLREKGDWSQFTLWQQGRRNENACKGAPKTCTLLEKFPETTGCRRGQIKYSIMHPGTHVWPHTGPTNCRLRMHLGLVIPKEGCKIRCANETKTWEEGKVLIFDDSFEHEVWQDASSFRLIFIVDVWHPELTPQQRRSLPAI
# [6] = molecular target: alpha-thrombin (light + heavy chain) (Homo sapiens (Human)) (UniProt P00734+P00734); test: SPR; settings: 2'-F pyrimidines; 10 mM HEPES-KOH pH 7.5, 100 mM KCl; protein amine-coupled on CM5, BSA reference
# [7] = molecular target: T3, SIRT1, human (Homo sapiens (Human)) (UniProt Q96EB6); test: SPR; settings: circular (ligated 40-mer, ESI Fig 4); 100 mM NaCl, 5 mM MgCl2, pH 7.4, 25 C
# T3 sequence: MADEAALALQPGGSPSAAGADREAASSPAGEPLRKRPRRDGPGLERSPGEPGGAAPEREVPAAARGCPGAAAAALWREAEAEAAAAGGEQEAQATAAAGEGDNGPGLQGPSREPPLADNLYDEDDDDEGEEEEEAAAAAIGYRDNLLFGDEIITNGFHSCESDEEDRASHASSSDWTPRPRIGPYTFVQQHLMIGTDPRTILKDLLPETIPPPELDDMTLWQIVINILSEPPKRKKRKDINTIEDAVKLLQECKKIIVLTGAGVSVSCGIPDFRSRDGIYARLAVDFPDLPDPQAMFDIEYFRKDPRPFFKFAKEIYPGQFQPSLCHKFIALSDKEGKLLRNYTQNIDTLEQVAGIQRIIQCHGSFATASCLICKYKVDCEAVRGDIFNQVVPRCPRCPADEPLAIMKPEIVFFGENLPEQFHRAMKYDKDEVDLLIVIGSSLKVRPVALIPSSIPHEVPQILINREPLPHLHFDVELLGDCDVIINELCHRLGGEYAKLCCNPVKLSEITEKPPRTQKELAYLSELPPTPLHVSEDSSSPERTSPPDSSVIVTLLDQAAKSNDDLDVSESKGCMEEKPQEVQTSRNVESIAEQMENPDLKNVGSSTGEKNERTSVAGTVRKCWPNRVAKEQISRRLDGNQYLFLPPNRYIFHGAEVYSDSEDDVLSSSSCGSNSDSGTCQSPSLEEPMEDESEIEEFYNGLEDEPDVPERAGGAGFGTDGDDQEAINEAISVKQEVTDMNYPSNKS
# [8] = molecular target: Lactoferrin (bovine milk) (Bos taurus (Bovine)) (UniProt P24627); test: SPR
# [9] = molecular target: T4, FGFR3b ectodomain, human (Homo sapiens (Human)) (UniProt P22607); test: flow; settings: 2'-F pyrimidines; 3'-inverted dT (not in strands); 5'-thiol; protein on protein G beads; DPBS / FACS buffer, 1 h, 37 C; apparent Kd
# T4 sequence: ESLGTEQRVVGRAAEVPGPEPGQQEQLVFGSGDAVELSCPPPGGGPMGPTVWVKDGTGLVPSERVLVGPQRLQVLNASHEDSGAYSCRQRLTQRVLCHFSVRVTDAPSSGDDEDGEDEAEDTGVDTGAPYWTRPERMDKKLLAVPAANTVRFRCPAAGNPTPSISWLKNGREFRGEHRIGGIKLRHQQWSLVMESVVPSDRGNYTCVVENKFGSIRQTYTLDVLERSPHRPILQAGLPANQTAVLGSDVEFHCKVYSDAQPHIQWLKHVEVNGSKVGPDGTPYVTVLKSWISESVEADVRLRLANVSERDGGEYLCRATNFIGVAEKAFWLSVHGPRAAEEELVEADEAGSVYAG
# [10] = molecular target: T5, FGFR3c ectodomain, mouse (Mus musculus (Mouse)) (UniProt Q61851); test: flow; settings: 2'-F pyrimidines; 3'-inverted dT (not in strands); 5'-thiol; protein on protein G beads; DPBS / FACS buffer, 1 h, 37 C; apparent Kd
# T5 sequence: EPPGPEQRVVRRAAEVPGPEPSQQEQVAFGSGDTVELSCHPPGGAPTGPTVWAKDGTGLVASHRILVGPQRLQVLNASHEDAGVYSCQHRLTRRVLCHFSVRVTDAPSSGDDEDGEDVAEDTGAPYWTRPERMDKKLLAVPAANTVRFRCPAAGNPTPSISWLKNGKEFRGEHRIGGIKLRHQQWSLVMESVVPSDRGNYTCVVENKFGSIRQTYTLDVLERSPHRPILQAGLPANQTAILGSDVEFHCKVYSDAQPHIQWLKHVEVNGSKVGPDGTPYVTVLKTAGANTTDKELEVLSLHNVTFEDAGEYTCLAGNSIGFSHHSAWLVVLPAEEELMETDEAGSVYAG
# [11] = molecular target: T6, C5a anaphylatoxin (mouse) (Mus musculus (Mouse)) (UniProt P06684); test: SPR; settings: all L-RNA (Spiegelmer); 5' 40 kDa branched PEG via aminohexyl linker
# T6 sequence: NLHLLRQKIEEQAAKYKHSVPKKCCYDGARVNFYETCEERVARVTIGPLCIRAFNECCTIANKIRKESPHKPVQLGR
# [12] = molecular target: T7, C5a anaphylatoxin (human) (Homo sapiens (Human)) (UniProt P01031); test: SPR; settings: all L-RNA (Spiegelmer); 5' 40 kDa branched PEG via aminohexyl linker
# T7 sequence: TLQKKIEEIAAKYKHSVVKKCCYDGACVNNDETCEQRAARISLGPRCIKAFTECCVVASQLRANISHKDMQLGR
# [13] = molecular target: CD63 large extracellular loop (Homo sapiens (Human)) (UniProt P08962); test: ELONA; settings: binding buffer, 37 C, 1 h; protein adsorbed on plate
# [14] = molecular target: T8, NELF-E (Drosophila) (Drosophila melanogaster (Fruit fly)) (UniProt P92204); settings: HiTS-RAP; 10 mM HEPES pH 7.5, 100 mM NaCl, 25 mM KCl, 5 mM MgCl2, 0.02% Tween-20, RT
# T8 sequence: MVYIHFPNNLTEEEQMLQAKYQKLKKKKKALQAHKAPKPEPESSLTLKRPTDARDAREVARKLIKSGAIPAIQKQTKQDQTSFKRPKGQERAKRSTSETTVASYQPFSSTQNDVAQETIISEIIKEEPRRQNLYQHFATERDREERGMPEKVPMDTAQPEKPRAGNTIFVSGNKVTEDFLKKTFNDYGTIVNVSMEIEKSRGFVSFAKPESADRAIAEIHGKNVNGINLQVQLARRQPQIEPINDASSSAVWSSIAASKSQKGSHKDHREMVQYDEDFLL
# [15] = molecular target: T9, RNA-binding protein Hfq (YmaH) K2E (Bacillus subtilis (strain 168)) (UniProt O31796); test: EMSA
# T9 sequence: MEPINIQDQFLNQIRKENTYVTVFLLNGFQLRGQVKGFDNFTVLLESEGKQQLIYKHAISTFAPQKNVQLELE
# [16] = molecular target: PDGFR-alpha ectodomain (human) (Homo sapiens (Human)) (UniProt P16234); test: SPR; settings: 2'-F pyrimidines; 30 mM Tris-HCl pH 7.5, 150 mM NaCl, 5 mM MgCl2; aptamer on SA chip
# [17] = molecular target: Integrin alpha5 beta1 ectodomain (Homo sapiens (Human)) (UniProt P08648+P05556); test: SPR; settings: 2'-F pyrimidines; PBS 10 mM, 150 mM NaCl, 1 mM MgCl2, 0.005% P20, 25 C
# [18] = molecular target: TGF-beta1 (mature) (Homo sapiens (Human)) (UniProt P01137); test: SPR; settings: 2'-F pyrimidines; 10 mM HEPES-KOH pH 7.5, 100 mM KCl; protein amine-coupled on CM5, BSA reference
# TGF-beta1 (mature) (Homo sapiens (Human)), sequence (P01137 279-390): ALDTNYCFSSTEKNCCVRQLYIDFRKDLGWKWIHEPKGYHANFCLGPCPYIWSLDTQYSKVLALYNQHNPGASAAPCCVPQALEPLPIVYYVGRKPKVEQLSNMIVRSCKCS
# Double homeobox protein 4 (human), full length (Homo sapiens (Human)), sequence (Q9UBX2 whole entry): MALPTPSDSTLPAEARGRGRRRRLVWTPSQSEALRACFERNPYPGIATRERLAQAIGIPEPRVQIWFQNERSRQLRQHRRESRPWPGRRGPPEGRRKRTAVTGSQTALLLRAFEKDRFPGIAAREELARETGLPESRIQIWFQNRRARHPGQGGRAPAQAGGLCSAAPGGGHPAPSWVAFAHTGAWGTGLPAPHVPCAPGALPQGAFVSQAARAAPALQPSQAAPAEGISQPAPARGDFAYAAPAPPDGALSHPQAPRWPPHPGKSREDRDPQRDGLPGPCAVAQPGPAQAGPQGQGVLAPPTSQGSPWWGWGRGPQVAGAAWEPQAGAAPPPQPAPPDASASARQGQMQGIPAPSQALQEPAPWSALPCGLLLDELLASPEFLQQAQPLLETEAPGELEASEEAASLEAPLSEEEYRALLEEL
# CD63 large extracellular loop (Homo sapiens (Human)), sequence (P08962 103-203): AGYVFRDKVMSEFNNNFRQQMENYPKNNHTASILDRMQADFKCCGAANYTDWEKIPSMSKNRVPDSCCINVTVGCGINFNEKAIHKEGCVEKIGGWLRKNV
# Lactoferrin (bovine milk) (Bos taurus (Bovine)), sequence (P24627 20-708): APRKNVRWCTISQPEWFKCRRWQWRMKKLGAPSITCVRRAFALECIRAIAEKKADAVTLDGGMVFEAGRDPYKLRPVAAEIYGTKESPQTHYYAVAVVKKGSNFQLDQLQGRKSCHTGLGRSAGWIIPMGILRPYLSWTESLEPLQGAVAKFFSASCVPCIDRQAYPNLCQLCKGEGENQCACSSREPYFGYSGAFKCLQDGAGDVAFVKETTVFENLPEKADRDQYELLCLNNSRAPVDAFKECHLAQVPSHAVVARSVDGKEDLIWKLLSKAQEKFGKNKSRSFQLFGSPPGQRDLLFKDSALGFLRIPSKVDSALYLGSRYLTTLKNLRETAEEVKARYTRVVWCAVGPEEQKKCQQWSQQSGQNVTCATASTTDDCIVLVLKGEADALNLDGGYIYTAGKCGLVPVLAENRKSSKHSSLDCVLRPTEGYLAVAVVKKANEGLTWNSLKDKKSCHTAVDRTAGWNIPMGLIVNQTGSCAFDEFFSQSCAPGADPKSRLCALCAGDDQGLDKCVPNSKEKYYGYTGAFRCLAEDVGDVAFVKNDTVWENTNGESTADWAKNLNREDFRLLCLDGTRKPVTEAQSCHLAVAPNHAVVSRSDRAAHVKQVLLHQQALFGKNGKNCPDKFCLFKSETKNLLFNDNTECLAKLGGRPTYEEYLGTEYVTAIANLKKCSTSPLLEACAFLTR
# Integrin alpha5 beta1 ectodomain (Homo sapiens (Human)), sequence (P08648 42-995, chain 1 of 2): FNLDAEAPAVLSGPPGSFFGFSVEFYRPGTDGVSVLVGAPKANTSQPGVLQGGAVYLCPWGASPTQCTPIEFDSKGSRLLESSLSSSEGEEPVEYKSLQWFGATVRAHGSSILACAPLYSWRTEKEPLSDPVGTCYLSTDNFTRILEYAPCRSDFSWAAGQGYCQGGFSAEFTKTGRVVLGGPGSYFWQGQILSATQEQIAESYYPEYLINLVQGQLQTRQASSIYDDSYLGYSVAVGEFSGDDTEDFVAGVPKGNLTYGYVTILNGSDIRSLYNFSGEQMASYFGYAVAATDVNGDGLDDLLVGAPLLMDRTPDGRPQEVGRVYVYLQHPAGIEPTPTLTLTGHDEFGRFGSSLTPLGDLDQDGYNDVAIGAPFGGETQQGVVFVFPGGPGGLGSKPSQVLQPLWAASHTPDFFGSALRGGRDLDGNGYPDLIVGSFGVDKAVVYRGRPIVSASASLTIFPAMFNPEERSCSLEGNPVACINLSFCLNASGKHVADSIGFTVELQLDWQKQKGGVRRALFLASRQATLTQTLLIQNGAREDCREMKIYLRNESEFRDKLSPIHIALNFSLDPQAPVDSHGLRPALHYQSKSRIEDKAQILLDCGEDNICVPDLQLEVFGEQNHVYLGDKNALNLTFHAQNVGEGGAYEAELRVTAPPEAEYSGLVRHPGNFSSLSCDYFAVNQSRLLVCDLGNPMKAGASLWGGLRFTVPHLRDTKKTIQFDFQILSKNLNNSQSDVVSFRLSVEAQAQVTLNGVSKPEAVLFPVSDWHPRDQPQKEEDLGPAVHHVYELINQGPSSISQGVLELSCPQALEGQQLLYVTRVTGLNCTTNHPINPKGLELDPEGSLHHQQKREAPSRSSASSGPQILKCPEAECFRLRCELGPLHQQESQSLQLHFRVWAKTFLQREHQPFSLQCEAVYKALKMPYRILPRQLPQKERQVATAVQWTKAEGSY
# Integrin alpha5 beta1 ectodomain (Homo sapiens (Human)), sequence (P05556 21-728, chain 2 of 2): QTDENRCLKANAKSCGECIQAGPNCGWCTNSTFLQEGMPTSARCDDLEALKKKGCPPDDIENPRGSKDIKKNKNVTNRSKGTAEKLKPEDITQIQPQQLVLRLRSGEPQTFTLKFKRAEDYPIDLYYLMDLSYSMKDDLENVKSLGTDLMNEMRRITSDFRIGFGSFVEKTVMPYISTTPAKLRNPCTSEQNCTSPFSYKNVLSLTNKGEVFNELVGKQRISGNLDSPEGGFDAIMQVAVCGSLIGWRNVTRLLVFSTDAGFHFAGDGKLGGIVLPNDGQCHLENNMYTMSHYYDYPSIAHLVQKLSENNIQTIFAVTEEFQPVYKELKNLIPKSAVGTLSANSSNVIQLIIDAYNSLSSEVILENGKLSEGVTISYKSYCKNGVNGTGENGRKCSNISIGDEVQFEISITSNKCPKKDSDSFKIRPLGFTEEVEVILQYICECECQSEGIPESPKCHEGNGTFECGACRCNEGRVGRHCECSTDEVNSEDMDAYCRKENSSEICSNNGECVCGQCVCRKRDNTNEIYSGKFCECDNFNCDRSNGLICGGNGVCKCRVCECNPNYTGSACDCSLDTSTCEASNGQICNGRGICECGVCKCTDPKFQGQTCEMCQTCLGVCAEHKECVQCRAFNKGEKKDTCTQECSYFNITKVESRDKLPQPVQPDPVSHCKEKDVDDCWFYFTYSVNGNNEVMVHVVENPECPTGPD
# PD-L1 (human) (Homo sapiens (Human)), sequence (Q9NZQ7 19-290): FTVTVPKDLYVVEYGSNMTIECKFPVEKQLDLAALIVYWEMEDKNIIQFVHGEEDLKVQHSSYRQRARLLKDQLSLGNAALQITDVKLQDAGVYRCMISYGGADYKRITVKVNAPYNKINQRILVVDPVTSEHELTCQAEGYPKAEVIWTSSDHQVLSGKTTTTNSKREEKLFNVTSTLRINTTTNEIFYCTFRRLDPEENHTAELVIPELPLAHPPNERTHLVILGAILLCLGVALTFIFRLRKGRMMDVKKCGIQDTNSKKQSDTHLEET
# PDGFR-alpha ectodomain (human) (Homo sapiens (Human)), sequence (P16234 24-524): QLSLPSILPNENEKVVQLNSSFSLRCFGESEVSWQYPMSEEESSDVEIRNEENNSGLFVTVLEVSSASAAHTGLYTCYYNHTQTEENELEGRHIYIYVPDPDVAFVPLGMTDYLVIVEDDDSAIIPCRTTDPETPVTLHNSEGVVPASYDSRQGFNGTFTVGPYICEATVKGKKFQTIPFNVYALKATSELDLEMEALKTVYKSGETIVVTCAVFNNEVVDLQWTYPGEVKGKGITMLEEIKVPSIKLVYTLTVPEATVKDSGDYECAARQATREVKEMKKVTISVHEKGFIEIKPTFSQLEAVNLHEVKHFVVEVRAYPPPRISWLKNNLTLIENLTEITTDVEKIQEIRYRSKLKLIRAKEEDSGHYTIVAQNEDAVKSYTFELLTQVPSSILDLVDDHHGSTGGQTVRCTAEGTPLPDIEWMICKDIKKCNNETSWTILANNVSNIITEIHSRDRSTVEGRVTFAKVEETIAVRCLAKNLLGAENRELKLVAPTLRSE
sequence,measurement,setting,value
AACAGAGGGACAAACGGGGGAAGATTTGACGTCGACGACA [EP166],Kd,[1],5480 nM
ACCGACCGTGCTGGACTCATCTCGCTTTTTTCACGGTCCACACTACTATGAGCGAGCCTGGCG [XQ-P3],Kd,[2],15.4 nM
AGCTAACTTAATCAACCGCAGGTTGATTAACCCGTTAGC [DUX4_CTT_R7CCC],Kd,[3],20 nM
AGGGCCCGACGTGACGGCACGTCGGATATCTCATGCGTGT [M17],Kd,[4],4.98 nM
ATACCAGCTTATTCAATTCGGGACAAGACAACGAACGAACAGGAAGAGAACCGGAATGCAGACGTCAGGGAGATAGTAAGTGCAATCT [AP-Cell 1],Kd,[5],47.5 nM
CCUUUGGUUCGGAUAAUUAUUAAGUAUUGUCUUCAUUCA [Tbn#3],Kd,[6],1.4 nM
CGAGTGGGTTACATCGAAACTGGATCTCAACAGCGGTAAC [AC3 (C3)],Kd,[7],0.27 nM
"GCAGGACACCGTAACACGGGCTGATGCTCTCTTTATTTTACCTAAATAAAGTGTCCTGC [YFL-4 (Lac-A1), truncated 59-mer]",Kd,[8],0.953 nM
GCCGAUGGUUUUGUGGCCGUUUGAGGUUCCUACGGC [iR3],Kd,[9],48 nM
same,Kd,[10],36.6 nM
GCCUGAUGUGGUGGUGAAGGGUUGUUGGGUGUCGACGCACAGGC [NOX-D19],Kd,[11],0.051 nM
same,Kd,[12],1.39 nM
GCTGGACTCACCTCGACCAGAGCCATTGGGTTTCCTAGGAAATAGGGCCTTTACTATGAGCGAGCCTGGCG [LL4A],Kd,[13],84.6 nM
GGGAAUGGAUCCACAUCUACGAAUUCCCAACGACUGCCGAGCGAGAUUACGCUUGAGCGCCCCACUGAGGAUGCCCACGGGCGAUUGGGGCACGGCUUCACUGCAGACUUGACGAAGCUU [NELFapt (full length)],Kd,[14],5.2 nM
GGGACACAAUGGACGUAGAGAGAGAUUAGAUCCUGUCCGCGGCUAUAACGGCCGACAUGAGAG [m49f],Kd,[15],10 nM
GGGAGAGCGGAAGCGUGCUGGGCCUGCUCUUUAAUAAACCCACUUUCGAACAUCAGCGUAUGUCCAUAACCCAGAGGUGAUGGAUCCCCC [PDR3],Kd,[16],0.25 nM
GGUUACCAGCCUUCACUGCGGACGGACAGAGAGUGCAACCUGCCGUGCCGCACCACGGUCGGUCACAC [H02-2'F],Kd,[17],72 nM
UGGUAAUUUGUCGUUUAUACGGGUCCUCGCAUCUUCCUA [TGF#2 (probable)],Kd,[18],10 nM
